# Assay: soluble on expression in E. coli; label from the status in PepcDB or PDB records
row,Sequence,soluble on expression in E. coli
1,MGSDKIHHHHHHMYREFYGLREKPFSKTPDPRYLFLSRGHREALARLQYAVEERELALLTGDIGCGKTTISRALMDAMGEACRFCFIFNPRLSPLEFLRVIARSLGIDNPAGAKDELLKQLTETLYLMHAEGRCPVIVVDEAQLIPDRDVFDEIRLLTNYQLDDQNLMSVVLMGQPELRQILADPVHEPLRQRIALHYHLQPLSLDETLEYIDFRLEVAGGTPGLFSPDAVQRIHELSGGVPRKINILATNALLVGYGRDAAWIDASLVEELRDEANLY,not soluble
2,MEPAAGSSMEPSADWLATAAARGRVEEVRALLEAGALPNAPNSYGRRPIQVMMMGSARVAELLLLHGAEPNCADPATLTRPVHDAAREGFLDTLVVLHRAGARLDVRDAWGRLPVDLAEELGHRDVARYLRAAAGGTRGSNHARIDAAEGPSDIPD,soluble
3,MPFIDIQSKVGINIDKWLLLQSSKQPYRWTTSCHAFEKEWVECSHGIGQIRAQKECKLEYEDFYECMHRNKLRQRLQAIQEQKKKLEKEGVYKAPDFTKDSNTP,not soluble
4,MKYFFETRLGETRYRLADGSLLCKDVPIGRTGKQLYGADDLPKLKPDKFVEIVVTRSPEQVFHPATLASFEGMSITILHPEDENGNVRLVNPENWKVLAVGHLQNVRRGTGEQSDLMLADLIVKDESAIQLIEDGLREVSCGYDAEYEQTEPGKAEQVDITGNHVALVPKGRAGNRCAIGDRDTMANQKKNWWNRMRAAIKTGDADTMNELVESAPASVTGDEGDLPQGVNLNINLSPQQPLPDKAPEMGGDPTGDSDDDLKTLLKALLAKLERNATGDNDNKPDDNPTGDGEDDEEETTITGDSAWRAEVIVPGIDLSRKMKPTAFKREVLASADKTLVRQIVGDADIRKLPKQSVDMAFNAVSEVAKGRNTRATTGDAQRLNMGMTSIASLNKQNAEFWANRKG,not soluble
5,MDNTYRDEKVNGCGPGDVNLMLELLEKGEKIGGKSADQSSLFVALCRSVGIPAREVFGIRVLPSSFSEGLSIKPGSKDITKAQHCRAEFWAGEWIPVDPADVTKLILKEKLPRNHPRVNFARRYFFGNWDPHWIAYNWGRDFVLEPPQRVKPLNLFGYPYAEVKGEPLNWLEPKSFVYRIKLVRA,not soluble
6,MGHHHHHHAKAVAPTTGWKQENGMWYFYNTDGSMATGWVQVNGSWYYLNSNGSMKVNQWFQVGGKWYYVNTSGELAVNTSIDGYRVNDNGEWVR,soluble
7,MGSDKIHHHHHHMKYRFENHCVDKQCNLHIFADGKAAHSSTPEDGVNAVTHLAALLSPELNDKPWPKTSASLTVAAMNELVGLGIYAEQFGDLAYKDDFMGPLTLAPTVVVQTQKGTEVTINLRRPVGKTPELLAKQAREALALWQDKHQVQLADIESYWGEPMVMKGAPQQQTLLDVFAHFTGIVDPKPVAIGGSTNSKLFPNALSFGPAMPGVEYTGHTEKEFITHKQFMLNLKMYTAAFIELSAVK,not soluble
8,MGSDKIHHHHHHMDVFSANQSAQGIVEEAQQANALDHPAAFEIPRSAVIDIKDSISGRTYPLFIKLPKSYRSQPNKRYPVIYLTDSWYSFQIVSGATRFPMNFNKMDEAIIVAISYSEGSRGSSSRNRDYTPSVNPAWKDITGGAAAHRDFIETTVFDYVERHYRAEAGSRIFVGNSFGGLFGTYVLMSKPEMFDSYILGSPSYWWDKGYIFELEKQFRKSAKPVSAKVFIGIGELEKKVNGVGEDMVKEAQAFYDLMQQWSSRPQTKLLIIPEADHQTAFPTTAIHGLQWILGKCPPKGNCLQGNLN,not soluble
9,MKPGIVKFALNVWPPFWGAGIKILHISEDFRTVKVRLKLRWWNKNANRTQYGGSIFSLTDPIYSLMLMGILREEYYVWDKEASINFIKPGQSDLFAEFEITDGMLDEIYQMTRNGEKCFPEFITHVKDKQGNVVSEVQRKLYVRKLEHHHHHH,soluble
10,MKIGFIGAGSMGGAMIKGLLKAEAVKKEHLYVKGGSSGTAEALQKEWGFQLVTDYALFQECKVIFIATGAKVVLPVLQELAPHFSNESLLISVATGHTIQEAQMALGNKEAKVVHAIPNTPVSVNQGVIGVALAPTIEGQTKDLAMELLATLGLVKEIREAQLETFGTVAGCSPAFVDIFMEALGDAAVLEGLPRDLSYEIVAQMIKGTATLALDTKKHPGALKDEVTSPGGSTIRGVVALEKNGFRYAVMDAVQQANHE,soluble
11,MPAKPQLISPAGDWTSMRAALDAGADAVYFGAEGFNMRAASKGFSPGDFGGIARLCRSHGAKAYLALNSVIYDAELDEVDRTAAAAKAAGLDAVICWDLAVIEACRRHEMPIHLSTQASVSNINALRFYASLGARMIVLARELTLEQTAAITKCIAAEKLPVTVESFVHGAMCVAISGRCFLSQELFGRSANRGECVQPCRRSYRIADVEEGFELELGSNYVMSPKDLCALPFLDKLFDAGIGAFKIEGRNRSPEYVATTTAAYRKAIDFIAAHRNDKDFDEAYRSLTDRLQNDLVRVYNRGFSEGFFFGKPADAWTKHSGSAATETKSYVGVVRKYFPKAGVAEILVHAPSVDSGVRLSIQGPATGLVTVPDAELHLDGQLANRIEQGQIFTVRCDRVRKNDKVYVLLKN,not soluble
12,MGRVFMVDLEGNIYICKLCKTHLSTDQDIMSKSFQCKNGRAYLFNNVVNVSVGEKEDRMMITGLHNVVDIFCVGCGSNVGWKYEFAHEKSQKYKEGKSVLELYKISGPHDSNDLVSDGDDA,not soluble
13,SVDDSKYQCVKLNDGHFMPVLGFGTYAPAEVPKSKALEAVKLAIEAGFHHIDSAHVYNNEEQVGLAIRSKIADGSVKREDIFYTSKLWSNSHRPELVRPALERSLKNLQLDYVDLYLIHFPVSVKPGEEVIPKDENGKILFDTVDLCATWEAMEKCKDAGLAKSIGVSNFNHRLLEMILNKPGLKYKPVCNQVECHPYFNQRKLLDFCKSKDIVLVAYSALGSHREEPWVDPNSPVLLEDPVLCALAKKHKRTPALIALRYQLQRGVVVLAKSYNEQRIRQNVQVFEFQLTSEEMKAIDGLNRNVRYLTLDIFAGPPNYPFSDEY,soluble
14,MWKNGAMRGCNKETGEFLGPSRSQQRRTALEVLVLSEKLAALTPAQLAKLPIPERLLPHITETKRITSHIARKRQLAFLAKQMRREDDTTLEAIREKLNASGIQAQREVATLHRTEQWRKRLLEEGDSALTELLNQYPQADCGKLRQLLRNSKTEQARNKAPQAFRELYQVLHGLIITQNSDNQHQTPQ,soluble
15,MAHHHHHHMFHRHSFYEKGSSAPRDGAGAGADGTQAHGGAAGGSCNNGGTSSSSTASSQQQREQDERLYGMGSATAQQRRQVRQQWEKSFFGRLHYEEGMHDRFSEALKSEDAEAFRQSIAGQSHADLFPHWPEEEEAPLSEFKRLRPSLQLHYIVNRLSSGERRIRYSVDFGGLLMMPQLNLGEMMVKEADTLLRELGWMNDEVAMRIEEVQALASKIKFDFDLD,soluble
16,MSLAKPFDAYISVTVKARGNGTVHLGPIHKRWSRLDMGQFLLGGSRFVDSQRQEFIYYFHPGDMKPPLNVYFSGYRTAEGFEGYYMMKRMNAPFLLIGDPRVEGGSFYIGSSEYEQGIINVIDETLEKLNFKSHELILSGLSMGSFGALYYGAQLNPQAIIVGKPLVNIGTIAEHMRLLRPEEFGTALDVLVSNEGDTSQASIQALNQKFWQTFQKKSLSQTVFAIAYMQHDDYDPHAFQELLPVLTAHQARVMNRSIPGRHNDDSEGHHHHHH,not soluble
17,MGSDKIHHHHHHMLSNNCSILLIDDDADVLDAYTQLLEQAGYHVSACNNPFDAREQVPKDWPGIVLSDVCMPGCSGIDLMTLFHQDDDLLPILLITGHGDVPMAVEAVKKGAWDFLQKPIDPGKLLTLVDAALRQRQSVIARRQYCQQKLQVELIGRSQWTVRYRQRLQQLAETDIAVWLYGEPGTGRMTGARYLHQLGRHAEGPFIACELTPANAHTLNELIAQAQGGTLVLSHPEHLTHEQQHQLVQLQSHEKRPFRLIGIGSASLVELAASSQIVAELYYCFAMTQIGCQPLSKRPDDIEPLFHHYLQKTCQRLNHPVPEVDAGLLKGMMRRVWPNNVRELANAAELFAVGVLPLAETVNPLMHIGEPTPLDQRVEDVERQIITEALNIHQGRINEVAEYLLIPRKKLYLRMKKYGLNKEHYKGV,not soluble
18,MRLRSMTKVLVLGARFGGLSAAYALKRLAGNKAEIKVINNTRFSYFRPALPHVATGVINENDVMVDLTKALPEKRINFQQGTVEKIDASGGLVYYTKPDGDKAEEDYDYLIIALGAHLGTELVKGWDKYGYSVCELDYALKLREKLKDFKGGTIAIGSGLFYQGKSPKPKVPENYVPVADAACEGPIFEMSLMLSGYFKKKGMLNKVKFVVFSPGEYLSDLSTMSRKIVREMYKQMGIELVDNFRIKEIRENEIADEAGKTIKADLTILIPPYTGNPALKNSTPDLIDDGGFVPTDLNMVSINYDNVYAVGDANSLTVPKLGYLAVKTGNIAAQHLATRLGVQVKVDQYYPTIICVADNPFEGFGIAVKDDTWYGGTTSIAAPSPINHIKKELFHKYFIWTKGDMALEKFLASWLEHHHHHH,soluble
19,MSLTSTLLRGRTLSFVRWPETIDDHSAWRYEEDGGLLISDGRIIASGAYHDVEKQAGEGAKKIDHRPHLLLPGFIDTHVHFPQMQVIASYGAELLDWLNTYTFPEETKFANAQHGRRIARLFLDEMVRHGTTTVAAYCSVHKASAEAFFAESHDRNMLNIAGKVMMDRNAPDGVLDTPQSGYDDTKALIKEWHGKGRQHYAITPRFAITSSPEQMEMAGALCREHPGLHMQTHLSENHAEIAFTQQLYPRSRDYTDVYEHYGLLGKNSLFGHCIHLSEREADALSQSGSVAVFCPTSNLFLGSGLFDYQRFRRRDKPLRIAAATDVGGGTNYSMLRTMDEGYKVIALNGEKLNPFQSFWQITRGNAEALSVADKIGTLDQGTDADIVVLDARATPAMRLRMETAQTLAQELFLLQTLGDDRAVREVYVAGRAAKSDMANEGHHHHHH,soluble
20,AIATSCHIAEEHIQKVAIFGGTHGNELTGVFLVKHWLENGAEIQRTGLEVKPFITNPRAVKKCTRYIDCDLNRIFDLENLGKKMSEDLPYEVRRAQEINHLFGPKDSEDSYDIIFDLHNTTSNMGCTLILEDSRNNFLIQMFHYIKTSLAPLPCYVYLIEHPSLKYATTRSIAKYPVGIEVGPQPQGVLRADILDQMRKMIKHALDFIHHFNEGKEFPPCAIEVYKIIEKVDYPRDENGEIAAIIHPNLQDQDWKPLHPGDPMFLTLDGKTIPLGGDCTVYPVFVNEAAYYEKKEAFAKTTKLTLNAKSIRCCLH,soluble
21,SLLNVPAGKDLPEDIYVVIEIPANADPIKYEIDKESGALFVDRFMSTAMFYPCNYGYINHTLSLDGDPVDVLVPTPYPLQPGSVTRCRPVGVLKMTDEAGEDAKLVAVPHSKLSKEYDHIKDVNDLPELLKAQIAHFFEHYKDLEKGKWVKVEGWENAEAAKAEIVASFERAKNK,soluble
22,GPGSMFYPNSPQTSPQLTQIPYGQQYAMMQRQIQQPYHPFATTEPQARLYPYHYQGPIQQEQGGFITQQSTAASPQYVQMRVTPVDQSIMSGYPNQTANGSSSSSFNYNIHPQQQQQQQQQQQLRHHAMPVGSVPLQDDRYRKQLIVNYLAPDVTSTDLHELFSRFGELDGARIIYDKQTNMSKGYGFVYFCHAEDAKEAVERMSGYEFHGKWLKVGYSTNPLNIVPSNSSPYVHAGSRGAAG,not soluble
23,MNDITQLRQNVLEKAHQEGQQCLKIATDSLDTDFKERQQQGLHDLKAKRQKELKALEQQFQVAQQQLKNQERQALLALKQDSIKELFEASLEKMTNFSKEEELAFLKQVLSKYPEQPLQVTFGEKTGQKFSSYDCAELRLAFPQLSYNQELIPQEAGFLVSLDQVDDNYLYRYLLESVLKEESSRIIDMLFSEI,not soluble
24,MFALVLAAGRSRRFDGDKRKALLPCGRTLLTACLETAGKVFTETGVVLREDDEVQTLGIPSKVTIIRCKHADLGMGHSLAAGIAAALNSSADAVAILLADMPWIEPQTLRDLARLADPQRIALPMHEGQRGHPVIIGRRFWPRLLALEGDQGAKALITNNPAFCDVMNCDDPGVLRDADTRSALAIACRQHLTAGRDLEHHHHHH,not soluble

# — the DeepSol protein solubility set
